The results in this text go back to patent US9248180B2, “IC31 nanoparticles” (Valneva Austria GmbH, priority 2010, dated 2016).

Where “and” joins values, the source holds several entries; their conditions need not be identical. Equal values may be shown once.

The nature of series [1]: Viscosity and sterile-filterability of KLK in 10 mM Tris as a function of pH. In kind it is physicochemical. The settings on record: for Viscosity (cP): 2000 nmol/mL KLK in 10 mM Tris, no salt; for Sterile-filterable: 0.2 μm filter. As to the method:
For sterile filtration, appropriate viscosity of the mixture to be filtered is also critical. Viscosity can be measured e.g. on a Brookfield DV-E rotation viscometer at 20° C. using an LV61 spindle and can be reported as centipoise (cP=milliPascal seconds). Preferred compositions have a viscosity of less than 15 cP. Even more preferred compositions have viscosities of less than 12 cP or even less than 10 cP.
One of the key factors for sterile-filterable compositions is viscosity. At a viscosity >15 cP, sterile filtration through a 0.2 μm filter is no longer possible. The final viscosity of the nanoparticulate IC31® composition correlates to the final pH of the composition due to the fact that the viscosity of KLK in solution increases drastically with increasing pH, resulting in non-sterile-filterable formulations at a final pH of around 7.2.

Series [2] has as its system CD8+ cells from the lungs. Nature of the series: Cytometric Bead Array of cytokines produced by CD8+ lung cells of vaccinated mice. The note with it: immunizations d0, d13, d28. It counts as in vivo, C57BL/6 mice.
Where [3] appears, read: CD8+ lung cells stimulated with Medium.
Setting [4] is: CD8+ lung cells stimulated with SVN19-28.
Where [5] appears, read: CD8+ lung cells stimulated with TRP-2180-188.

As for “KLKLLLLLKLK [peptide component of IC31®]”, the “Viscosity (cP)” value came out at 9.69 cP in series [1] (pH 6.24); 8.06 cP in series [1] (pH 6.4); 10.00 cP in series [1] (pH 6.6); 10.00 cP in series [1] (pH 6.73); 10.94 cP in series [1] (pH 6.88); 11.25 cP in series [1] (pH 7.03). The “Viscosity (cP)” value in series [1] (pH 7.22) is 15.00 cP; in series [1] (pH 7.39), 16.88 cP; in series [1] (pH 7.7), 16.88 cP; in series [1] (pH 7.96), 25.00 cP; in series [1] (pH 8.4), 21.88 cP and 24.38 cP; in series [1] (pH 8.8) it was 87.50 cP. The Sterile-filterable entry in series [1] (pH 6.24), in series [1] (pH 6.4), in series [1] (pH 6.6), in series [1] (pH 6.73), in series [1] (pH 6.88) and in series [1] (pH 7.03) was “Yes” in each case. Besides, the Sterile-filterable entry is on record as “Yes/No*” in series [1] (pH 7.22); “No” in series [1] (pH 7.39); “No” in series [1] (pH 7.7); “No” in series [1] (pH 7.96); “No” in series [1] (pH 8.4); “No” in series [1] (pH 8.8).

In series [2] (setting [3]), SVYDFFVWL [TRP-2180-188] returned a GM-CSF of 46 pg/mL, an IFN-γ of 41 pg/mL, an IL-6 of 109 pg/mL and a TNF-α of 14 pg/mL. For the same sequence, in series [2] (setting [4]), the GM-CSF turned out to be 57 pg/mL, the IFN-γ worked out at 199 pg/mL, the IL-2 turned out to be 43 pg/mL and the IL-6 is reported as 115 pg/mL. In series [2] (CD8+ lung cells stimulated with SVN19-28de), the TNF-α was 9 pg/mL. In addition, in series [2] (setting [5]), the GM-CSF is 48 pg/mL, the IFN-γ was found to be 301 pg/mL, the IL-2 is given as 33 pg/mL and the IL-6 is 185 pg/mL. In series [2] (setting [5]), this sequence showed an IL-10 of 56 pg/mL and a TNF-α of 24 pg/mL.
